assay: yeast display, Sf9 membrane polyspecificity reagent, FACS + sequencing; frameworks hold sequencing errors
Outline: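 Polyreactivity labels are assigned by the sorting gate from which each nanobody was recovered. The gates were low and high (top ~1%), set on anti-HA fluorescence for expression and streptavidin fluorescence for reagent binding. Before sorting, galactose-induced (36–48 hours) yeast display cells were stained for 1 hour at 4 °C with 10% biotinylated, detergent-solubilized Sf9 membrane reagent.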

Row | Sequence | polyreactivity (PSR sort gate)
1 | QVQLVESGGGLVQAGGSLRLSCAASGSIFVKNAMGWYRQAPGKERELVARSSFSGGSTYYADSVKGRFTISRDNAKNTVYLQMNSLKPEDTAVYYCAVDGGEFSSYGYWGQGTQVTVSS | low polyreactivity
2 | QVQLVESGGGLVQAGGSLRLSCAASGSIFVKNVMGWYRQAPGKERELVAAISSSGGRTYYADSVKGRFTISRDNAKNTVYLQMNSLKPEDTAVYYCNKAYPGRRDGSYDYWGQGTQVTVSS | high polyreactivity
3 | QVQLVESGGGLVQAGGSLRLSCAASGSIFVKYAMGWYRQAPGKERELVAAISRNGGSTYYADSVKGRFTISRDNAKNTVYLQMNSLKPEDTAVYYCNKVRPGWTYEYGYWGQGTQVTVSS | high polyreactivity
4 | QVQLVESGGGLVQAGGSLRLSCAASGSIFVKYAMGWYRQAPGKERELVAAITTGVGSTYYADSVKGRFTISRDNAKNTVYLQMNSLKPEDTAVYYCAAETIDYWYILEYDYWGQGTQVTVSS | low polyreactivity
5 | QVQLVESGGGLVQAGGSLRLSCAASGSIFVLNAMGWYRQAPGKERELVAAITGTGDRTYYADSVKGRFTISRDNAKNTVYLQMNSLKPEDTAVYYCAATVGDAYYEYDYWGQGTQVTVSS | low polyreactivity
6 | QVQLVESGGGLVQAGGSLRLSCAASGSIFVLYAMGWYRQAPGKERELVAAINYDGASTYYADSVKGRFTNSRDNAKNTVYLQMISLKREDTAVYYCAASWQFNIDVQLYLFEYWGQGTQVTVSS | low polyreactivity
7 | QVQLVESGGGLVQAGGSLRLSCAASGSIFVNNAMGWYRQAPGKERELVAAIRRGSSTNYADSVKGRFTISRDNAKNTVYLQMNSLKPEDTAVYYCAADHVDDEAQNYDYWGQGTQVTVSS | low polyreactivity
8 | QVQLVESGGGLVQAGGSLRLSCAASGSIFVPYAMGWYRQAPGKERELVAAINSGGGTDYADSVKGRFTISRDNAKNTVYLQMNSLKPEDTAVYYCAKSRVAYRGWDHKYYIYDYWGQGTQVTVSS | low polyreactivity
9 | QVQLVESGGGLVQAGGSLRLSCAASGSIFVPYAMGWYRQAPGKERELVAAISSRGGRTYYADSVKGRFTISRDNAKNTVYLQMNSLKPEDTAVYYCNKTAGSHIPRLEYWGQGTQVTVSS | low polyreactivity
10 | QVQLVESGGGLVQAGGSLRLSCAASGSIFVPYAMGWYRQAPGKERELVAAISSSTASTYYADSVKARFTISRDYAKNTVYFQMNCLKPEDTAVYYCNAEQWDYGVRVAHYDYWGQGTQVTVSS | low polyreactivity
11 | QVQLVESGGGLVQAGGSLRLSCAASGSIFVRNAMGWYRQAPGKERELVAAISRSGSSTYYADSVKGRFTISRDIAKNTVYLQMNSLKPEDTAVYYCAARRRYKMDYWGQGTQVTVSS | high polyreactivity
12 | QVQLVESGGGLVQAGGSLRLSCAASGSIFVRYAMGWYRQAPGKERELVASIRSRGDSTYYADSVKGRFTISRDNAKNTVYLQMNSLKPEDTAVYYCAVQRSYVGPRQYNYWGQGTQVTVSS | high polyreactivity
13 | QVQLVESGGGLVQAGGSLRLSCAASGSIFVSNAMGWYRQAPGKEREMVAAISQSGGSTYYADSVKGLFTISRDNAKNTVYLQMNSLKPEDTEVYYCATPIRSGFRIYEYWGQGTQVTVSS | low polyreactivity
14 | QVQLVESGGGLVQAGGSLRLSCAASGSIFVSYAMGWYRQAPGKERELVAAITGRTGSTYYADSVKGRFTISRDNAKNTVYLQMNSLKPEDTAVYYCAARHKQHNRYDYWGHGTQVTVSS | low polyreactivity
15 | QVQLVESGGGLVQAGGSLRLSCAASGSIFVSYAMGWYRQAPGKERELVAAITGSGASTYYADSVKGRFTISRDNAKNTVYLQMNSLKPEDTAVYFCAAAPGKGPGYDYWGQGTQVTVSS | low polyreactivity
16 | QVQLVESGGGLVQAGGSLRLSCAASGSIFVSYAMGWYRQAPGKERELVAAITRSGGSTYYADSVKGRFTISRDNAKNTLYLQMNSLKPEDTAVYYCAARSYLGAYRRYYWGQGTQVTVSS | high polyreactivity
17 | QVQLVESGGGLVQAGGSLRLSCAASGSIFVSYAMGWYRQAPGKERELVAAITRSGGSTYYADSVKGRFTISRDNAKNTVYLQMNSLKPEDTAVYYCAARSYLGAYRRYYWGQGTQVTVSS | high polyreactivity
18 | QVQLVESGGGLVQAGGSLRLSCAASGSIFVSYAMGWYRQAPGKERELVAVISYSGVSTYYADSVKGRFTISRDNAKNTVYLQMYSLKPEDTAVYYCATRQYGTRHILKYNYWGQGTQVTVSS | low polyreactivity
19 | QVQLVESGGGLVQAGGSLRLSCAASGSIFVSYTMGWYRQAPGKERELVAAITRSGGSTYYADSVKGRFTISRDNAKNTVYLQMNSLKPEDTAVYYCARVSRRGPGYTTLYSRYDYWGQVTQVTVSS | low polyreactivity
20 | QVQLVESGGGLVQAGGSLRLSCAASGSIFVTYAMGWYRQAPGKERDLVATITNVGRTNYADSVKGRFTISRDNAKNTVYLQMNSLKPEDTAVYYCNADGAPGYPGAYDYWGQGTQVTVSS | low polyreactivity
21 | QVQLVESGGGLVQAGGSLRLSCAASGSIFVTYAMGWYRQAPGKERELVASISWRGVSTRYADSVKGRFTISRDNAKNTVYLQMNSLKPEDTAVYYCAARVTSHMYYWGQGTQVTVSS | high polyreactivity
22 | QVQLVESGGGLVQAGGSLRLSCAASGSIFVTYAMGWYRQAPWKDWELVAAISTSGGSTYADSVKGRFTISRDNAKNTVYLQMNSLKPVDTAVYYCNADDPGYAVPWYWFKYDYWGQGTQVTVSS | low polyreactivity

Row | Sequence | polyreactivity (PSR sort gate)
23 | QVQLVESGGGLVQAGGSLRLSCAASGSIFVVNAMGWYRQAPGKERELVAAITFSGDSTYYADSVKGRFTISRDNAKNTVYLQMNSLKPEDTAVYYCAAARRSSHWFTYDYWGQGTQVTVSS | high polyreactivity
24 | QVQLVESGGGLVQAGGSLRLSCAASGSIFVVYAMGWYRQAPGKEREMVAVISNGGTTNYADSVKGRFTISRDNAKNTVYLQMNSLKPEDTAVYYCAKASSRRYWTIRDGDYWGQGTQVTVSS | low polyreactivity
25 | QVQLVESGGGLVQAGGSLRLSCAASGSIFVWNALGWYRQAPGTERELVAAISYTDGSTYYADSVKGRFTISRDNATNTVYFQMNSLKPEVTAVYYCNAYPASRGPGNPLDDYWGQGTQVTVSS | low polyreactivity
26 | QVQLVESGGGLVQAGGSLRLSCAASGSIFVWNAMGWYRPAPGKERELVAAIRSDDDSTYYADSVKGRFTISRDNAKNTVYLQMNSLKPEDTAVITALVDSPTFSHVKPWDGGDYWGQGTQVTVSS | low polyreactivity
27 | QVQLVESGGGLVQAGGSLRLSCAASGSIFVWYAMGWYRQAPGKERELVAAITSSGGSTYYADSVKGRFTISRDYAKNTVYLQLNSLKPEDTAVYYCAKTPSRRGYYWGQGTQVTVSS | low polyreactivity
28 | QVQLVESGGGLVQAGGSLRLSCAASGSIFVWYAMGWYRQAPGKERELVAVISYGGDRTSYADSVKGRFTISRDNAKNTVYLQMNSLKPEDTAVYYCAARPFYRGYYYWGQGTQVTVSS | high polyreactivity
29 | QVQLVESGGGLVQAGGSLRLSCAASGSIFVWYDMGWYRQAPGKERELVATISLSGVSTYYADSVKGRFTISRDNAKNPVYLQLNSLKPEDTAVYYCAADFVEQGEDDYWGQGTQVTVSS | low polyreactivity
30 | QVQLVESGGGLVQAGGSLRLSCAASGSIFVYNAMGWYRQAPGKEMELVASITWSGGRTYYADSVKGRFTISRDHAKNTVYLQMNSLKPEDTAVYYCNKRQYSRTFRYGYWGQGTQVTLSS | high polyreactivity
31 | QVQLVESGGGLVQAGGSLRLSCAASGSIFVYNAMGWYRQAPGKERELVASITWSGGRTYYADSVKGRFTISRDNAKNTVYLQMNSLKPEDTAVYYCNVRQGGPTVTWEYDYWGQGTQVTVSS | high polyreactivity
32 | QVQLVESGGGLVQAGGSLRLSCAASGSIFVYNDMGGYRQAPGKERELVAGIDWSGDRTYADSVKGRFTISRDNAKNTVYLQMNSLKPEDTAVYYCIADEWRWDEILPYAVDYWGQGTQVTVSS | low polyreactivity
33 | QVQLVESGGGLVQAGGSLRLSCAASGSIFVYNDMGWYRQAPGKERELVAGIDWSGDRTYADSVKGRFTISRDNAKYTVYLQMNSLKPEDTAVYYCNAERYPYRLRARKLDYWGQGTQVTVSS | low polyreactivity
34 | QVQLVESGGGLVQAGGSLRLSCAASGSIFVYNVMGWYRQAPGKERELVAAISKTAGRTYYEDSVKGRFTISRDNAKNTVYLQMNSLKPEDTAVYYFAVGNKRDAYYQYSSYGYWGQGTQVTVSS | low polyreactivity
35 | QVQLVESGGGLVQAGGSLRLSCAASGSIFVYYAMGWYRPAPGKERELVASISRGGTSTYYADSVKGRFTISRDNAKNTVYFQMNSLKPEDTAVYYCAAQPYRTGTYDYWGQGTQVTVSS | low polyreactivity
36 | QVQLVESGGGLVQAGGSLRLSCAASGSIFVYYAMGWYRQAPGKDRELVAAITTSGGSTYYADSVKGRFTISRDNAKNTVYLQMNSLKPEDTAVYYCAAVLLAWYWSYSVPWAYDYWGQGTQVTVTS | low polyreactivity
37 | QVQLVESGGGLVQAGGSLRLSCAASGSIFVYYAMGWYRQAPGKERELVAAITETGGDTYYADSVKGRFTISRDNAKNTVYLQMNSLKPEDTAVYYCNTVRRSYWSWSTENSDYWGQGTQVTVSS | low polyreactivity
38 | QVQLVESGGGLVQAGGSLRLSCAASGSIFVYYAMGWYRQAPGKERELVASISESDGSTSYADSVKGRFTISRDNAKNTVYLQMNSLKPEDTAVYYCAADPYFFWYSPSFDYWGQGSQVTVSS | low polyreactivity
39 | QVQLVESGGGLVQAGGSLRLSCAASGSIFVYYAMRWYRQAPGKERELVAAITIGASTDYADSVKGRFTISRDNAKNTVYLQMNSLKPEDTAVYYCAADLYYGDYRTLPKPDEYDYWGQGTQVTVSS | low polyreactivity
40 | QVQLVESGGGLVQAGGSLRLSCAASGSIFVYYTMGWYRQAPGKERELVAAISFSGGSTYADSVKGRFTISRDNAKNTVYLQMNSLKPEDTAVYFCNADRWLYTPSKFVEMDYWGQGTQVTVSS | low polyreactivity
41 | QVQLVESGGGLVQAGGSLRLSCAASGSIFWANAMGWYRQAPGKERELVAAISSSGGGTYYADSVKGRFTISRDNAKNTVYLQMNSLKPVDTAVYYCNKLRLDYYEQGDYWGQGSQVTVSS | high polyreactivity
42 | QVQLVESGGGLVQAGGSLRLSCAASGSIFWAYTMGWYRQAPGKERELVAAISASGGSTYYADSVKGRFTISRDNAKNTVYLQMNSLKPEDTAVYYCAAVYDLGYYGPIWAIVLDDYWGQGTQVTVSS | low polyreactivity
43 | QVQLVESGGGLVQAGGSLRLSCAASGSIFWGNAMGWYRQAPGKERELVAAIDWSGGSTYYADSVKGRFTISRDNAKNTVYLQMNSLKPEDTAVYYCAADYLGGGDVGFDYWGQGTQVTVSS | low polyreactivity

— the nanobody polyreactivity screen of Harvey et al. (2022)
